In assay [1] the target is T1, Recombinant purified human matriptase (amino acids 596-855) (human), Q9Y5Y6.
T1 chain: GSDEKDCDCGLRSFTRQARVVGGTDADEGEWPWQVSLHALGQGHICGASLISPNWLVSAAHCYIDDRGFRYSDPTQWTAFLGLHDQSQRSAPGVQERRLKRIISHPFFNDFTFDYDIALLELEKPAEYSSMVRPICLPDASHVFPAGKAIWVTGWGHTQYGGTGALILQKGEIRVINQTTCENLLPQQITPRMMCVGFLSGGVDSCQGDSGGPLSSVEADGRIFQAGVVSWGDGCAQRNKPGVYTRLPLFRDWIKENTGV
Nature of the assay: ratio of Ki values, enzyme inhibition.

Assay [2] has as its target T1, Recombinant purified human matriptase …. Nature of the assay: enzyme inhibition, 1 nM matriptase, 1 µM inhibitor, Boc-Gln-Ala-Arg-AMC 50 µM.
Assay [3] shares this target. As to the kind of experiment: enzyme inhibition, fluorogenic substrate Boc-Gln-Ala-Arg-AMC, Morrison tight-binding fit.
Assay [4] addresses thrombin. Nature of the assay: enzyme inhibition, selectivity profile, mixed model fit.
For assay [5], the target named is T1, Recombinant purified human matriptase …. Nature of the assay: enzyme inhibition, 1 nM enzyme, Boc-Gln-Ala-Arg-AMC substrate.
Assay [6] concerns the target hepsin (human), P05981. The description is as above.
For assay [7], the target named is Bovine trypsin (bovine), P00760. Nature of the assay: enzyme inhibition, selectivity profile, Morrison tight-binding fit.
Bovine trypsin (bovine), P00760, sequence (P00760 24-246): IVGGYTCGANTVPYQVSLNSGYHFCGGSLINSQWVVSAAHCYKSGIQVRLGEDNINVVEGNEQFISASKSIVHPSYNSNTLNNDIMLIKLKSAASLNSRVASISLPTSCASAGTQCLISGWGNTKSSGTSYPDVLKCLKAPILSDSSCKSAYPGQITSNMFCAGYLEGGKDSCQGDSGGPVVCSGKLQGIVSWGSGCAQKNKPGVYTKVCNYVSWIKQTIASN
For assay [8], the target named is T2, TMPRSS11D, O60235.
T2 chain: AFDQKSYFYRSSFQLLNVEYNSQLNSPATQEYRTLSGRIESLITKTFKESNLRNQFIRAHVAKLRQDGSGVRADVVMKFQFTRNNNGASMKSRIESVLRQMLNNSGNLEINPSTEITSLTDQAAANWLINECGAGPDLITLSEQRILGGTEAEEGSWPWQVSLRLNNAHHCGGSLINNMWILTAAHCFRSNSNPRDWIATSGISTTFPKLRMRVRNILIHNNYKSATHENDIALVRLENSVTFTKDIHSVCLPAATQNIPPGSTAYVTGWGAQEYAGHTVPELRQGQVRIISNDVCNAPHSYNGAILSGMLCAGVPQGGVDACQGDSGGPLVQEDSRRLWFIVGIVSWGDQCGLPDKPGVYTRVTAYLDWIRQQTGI
The description is as above.

In assay [9] the target is T3, matriptase-2 (human), Q8IU80.
T3 chain: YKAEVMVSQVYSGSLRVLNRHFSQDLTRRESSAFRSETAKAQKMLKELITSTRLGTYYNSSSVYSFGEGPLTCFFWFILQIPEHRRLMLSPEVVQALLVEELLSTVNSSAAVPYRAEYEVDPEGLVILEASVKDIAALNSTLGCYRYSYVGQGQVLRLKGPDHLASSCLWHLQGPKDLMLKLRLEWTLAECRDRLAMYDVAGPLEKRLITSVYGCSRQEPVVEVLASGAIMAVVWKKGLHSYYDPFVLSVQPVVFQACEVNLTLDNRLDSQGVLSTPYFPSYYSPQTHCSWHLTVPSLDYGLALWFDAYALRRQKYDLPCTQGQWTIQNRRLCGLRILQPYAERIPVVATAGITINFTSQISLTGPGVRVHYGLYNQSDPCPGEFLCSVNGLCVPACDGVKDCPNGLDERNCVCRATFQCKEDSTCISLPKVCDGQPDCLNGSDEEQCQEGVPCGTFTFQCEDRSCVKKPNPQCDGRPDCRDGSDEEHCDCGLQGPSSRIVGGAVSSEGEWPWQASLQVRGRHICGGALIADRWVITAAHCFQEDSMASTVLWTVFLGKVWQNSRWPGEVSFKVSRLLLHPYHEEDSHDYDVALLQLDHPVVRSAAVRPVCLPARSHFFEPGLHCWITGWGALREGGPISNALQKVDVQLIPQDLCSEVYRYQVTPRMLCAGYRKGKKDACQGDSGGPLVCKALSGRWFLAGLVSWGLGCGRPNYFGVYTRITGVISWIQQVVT
The assay is described as above.

Assay [10] concerns the target T1, Recombinant purified human matriptase …. As to the kind of experiment: enzyme inhibition, fluorogenic substrate Boc-Gln-Ala-Arg-AMC, mixed model fit.

hepsin (human), P05981, sequence (P05981 45-417 limits assumed): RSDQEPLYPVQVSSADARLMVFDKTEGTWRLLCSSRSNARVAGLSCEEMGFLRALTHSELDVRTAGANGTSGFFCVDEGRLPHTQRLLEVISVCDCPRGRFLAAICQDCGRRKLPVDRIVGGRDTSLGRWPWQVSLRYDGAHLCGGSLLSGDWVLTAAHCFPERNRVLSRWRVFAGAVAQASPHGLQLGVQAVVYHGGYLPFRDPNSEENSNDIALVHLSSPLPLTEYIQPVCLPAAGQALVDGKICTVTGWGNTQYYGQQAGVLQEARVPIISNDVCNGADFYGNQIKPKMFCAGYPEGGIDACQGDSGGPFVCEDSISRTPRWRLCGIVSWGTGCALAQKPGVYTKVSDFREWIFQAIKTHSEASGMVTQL

For RQAK (modifications not checked) [RQAK-ketobenzothiazole], the change of Ki relative to compound 1 (orders of magnitude) in assay [1] was determined as 3. In addition, the percent inhibition of matriptase activity at 1 µM in assay [2] worked out at 25%. Also, the Ki in assay [3] is 9.5 nM.
With RQAR (modifications not checked) [RQAR-ketobenzothiazole], the Ki came out at 637 nM in assay [4], 0.97 nM in assay [7], 8.4 nM in assay [8] and 3.3 nM in assay [9]. Moreover, the IC50 in [5] amounted to 29 nM; in [6] it was 540 nM.
For the molecule RQAR (modifications not checked) [R-Q-A-(D)R ketobenzothiazole (compound 7)], the Ki in assay [3] was found to be 4.6 nM.
As to RQAR (modifications not checked) [reduced form of RQAR-ketobenzothiazole], in assay [10], the Ki came to 6120 nM.

One may read the Ki as a dissociation constant, usually derived from enzyme kinetics or from competition with a known ligand. Usually IC50 stands for the concentration needed to halve the response being measured.

The values are drawn from patent publication US20140086936A1.
